Assay results taken from the DeepSol protein solubility set.

test: soluble on expression in E. coli; label from the status in PepcDB or PDB records

Row | Sequence | soluble on expression in E. coli
1 | MTARVIALDLDGTLLTPHKTLLPSSLEALSRAKEAGFQLIIVTGRHHVAIHPFYQALALETPAICCNGTYLYDYQAKTVLDADPMPVDKALQLIDLLDEHQIHGLMYVDDAMLYEHPTGHVVRTSRWAQTLPPEQRPTFTQVSSLAQAARDVNAVWKFALTDEDIPRLQRFGQHVEQALGLECEWSWHDQVDIARKGNSKGKRLTQWIEAQGGSMKNVIAFGDNYNDISMLEAAGTGVAMGNADEAVKARADVVIGDNTTDSIAKFIYTHLL | not soluble
2 | MTASFPTRVYLLRHAKAAWAAPGERDFDRGLNEAGFAEAEIIADLAADRRYRPDLILSSTAARCRQTTQAWQRAFNEGIDIVYIDEMYNARSETYLSLIAAQTEVQSVMLVGHNPTMEATLEAMIGEDLLHAALPSGFPTSGLAVLDQDDSAASGKNRWRLIDFLAPGK | soluble
3 | MTATITNKKSCSGSVEAGKTRLTTEWKPESQVPQYVKNELSKPHPNYILAFLNVVQQLKIQRRTGYLDLGIKECESISDHMYRLSIITMLIKDSRVNRDKCVRIALVHDIAESLVGDITPVDPIGKEEKHRREWETIKYLCNALIKPYNEIAAKEIMDDWLAYENVTSLEARYVKDIDKYEMLVQCFEYEREYKGTKNFDDFFGAVASIKTDEVKGWTSDLVVQRQKYFADLTQSITK | soluble
4 | MTATPEVQKSIEEVYTKLQGASDCSSLLKKHLTKDVVAKNKSKKTRLGATLLDVIQSGGENLDSGVGIYAPDAESYTLFADLFNPVIEEYHNGFKATDTQPAMDLGEKNVGELADLDPEGKFIVSTRIRCGRSLQGYPFNPCLSETNYKMMETRMKEIFNSITDPELKGTYYPLTGMDEETKKKLIADHFLFKEGDRFLKAANANRYWPNGRGIFHNEKKTFLVWVNEEDHLRIISMQNGGNVGEVLARLIKGLNLVAAKAPFARHPRLGWLTFCPTNLGTTVRASVHIKLPKISAKDDFKKICSDMKLQIRGIHGEHSESKEGIYDISNKQRLGLTEYQAVRQMYDGLKKLIELEKAAA | not soluble
5 | MTATQGKCPVMHGGATTVNISTAEWWPKALNLDILSQHDRKTNPMGPDFNYQEEVQKLDAALKQDLQALMTDSQDWWPADWGHYGGLMIRLTWHAAGTYRIADGRGGAGTGNQRFAPLNSWPDNTNLDKARRLLWPIKQKYGNKLSWADLIAYAGTIAYESMGLKTFGFAFGREDIWHPEKDIYWGPEKEWFPPSTNPNSRYTGDRELENPLAAVTMGLIYVNPEGVDGNPDPLKTAHDVRVTFARMAMNDEETVALTAGGHTVGKCHGNGNAALLGPEPEGADVEDQGLGWINKTQSGIGRNAVTSGLEGAWTPHPTQWDNGYFAVCSLNYDWELKKNPAGAWQWEPINPREEDLPVDVEDPSIRRNLVMTDADMAMKMDPEYRKISERFYQDPAYFADVFARAWFKLTHRDMGPKARYIGPDVPQEDLIWQDPIPAGNRNYDVQAVKDRIAASGLSISELVSTAWDSARTYRNSDKRGGANGARIRLAPQKDWEGNEPDRLPKVLAVLEGISAATGATVADVIVLAGNVGVEQKARAAGVEIVLPFAPGRGDATAEQTDTESFAVLEPIHDAIATGSSRTMRQRLKNCCLIATQLLGLTAPEMTVLIGGLRVLGTNHGGTKHVVFTDREGVLTNDFFVNLTDMNYLWKPAGKNLYEICDRKTNQVKWTATRVDLVFGSNSILRAYSELYAQDDNKEKFVRDFVAAWTKVMNADRFDLD | soluble
6 | MTDFDIDTSAANYADELALLGVTGAMSYAPKGTQMPETIAPLNPPFVDFGWLSDGGITESQNEERNDWTPFQSTNPIRGQVTKQDFQFKTVVWSISGLANAMYYGVPESDMRFDQETGVTTFEQGKELPPDFKFGLVVDIVDGGKARRHCMPNVSVVERGDIVYSKDDLVGYEMTFRASYDPVAGYAVRRMFKEGWKPGHAGTTLADENKDASLGDWSNTLDESEVRKQSKTVTLPKGATGGTFTVSINGKASAAINHDATGTAMKLVLNKVDGGESAKVTGRAGGPYTITGVEGEITADGTNLTGSDTQDISIN | not soluble
7 | MTDKKPVIVYGVSGYTGRLVCEYLREFNIPFIAAGRDKKRIQEVLDRIPGLDTVDHEVVEVEHTVPALTELFSGARVVSNMVGPFIKHGAIVVEAALAAGCHYTDTTGEQDWVLDVQAKFGEKFAEKGLLLSPGVAQMYTTGEIAANIAL | not soluble
8 | MTDLPLTGRARPDRRPHTLAEWRAEGGYEAVDRARSMAPAEIIDMVEAAHLNGRGGAGFPAGRKWRFMPERGTSPGEGPSYLIVNGDEMEPGAFKDRFLLEALPHQVIEGAIITARATHADEAIVLIRDEYRPGIAAVERAIHEARDAGLLGDLAIRVHPSAGRYIVGEETALITALEGHRAVPRKRPPFPAQSGLWGRPTTVNNVETISLVPHILSLGPQRFRALSRTEEGGTKLYGVSGRVKRPGLFEAPMGTTARELIERAGGVSGDGQLRAFQPGGGASGFFGPDRLDLPLDFGHVAKAGSMFGTGMLIVLDGTACPVGFLARHMRFYARESCGWCTPCREGLPLVAKILDRFAAGQGRRADLELLQMTAAEAAPRGRSFCDLMGGAMAPLASGLSMFAAEFEARLAEGERALEHHHHHH | not soluble
9 | MTDTRASAHLYPAHDLAVCTDAGSAVERITAIYDRSAQAIRARFHAFARGEALDDDTPACYPYLGITVDPKTLVSDARPSWGTVAYPGVYGTTLTRPDLFREYYRVQIERLLHYHNSPVVVGVSNRPIPLPFVVEASTIDITPEQARALGGAFPLPDLAQIDDAIANGTYRPADNEPQPLSMFTAERVDLALQRLYHYTATHPKHFQRFVLFTNYQRYVDEFAALGRKLMEEGNDEGYVRFVEPGDTVHELGTPAPDDSHRIKGLPQMPAYHLVREDRLGVTLVNIGVGPSNAKTITDHLAVLRPHCWMMIGHCGGLRRSQQLGDYVLAHAYVRDDHVLDQDLPPWVPVPPIAEIQVALQEAVARITGLSGSDMKSRMRTGTVVSTDDRNWELKYQALYTRFNQSRAIAIDMESATIAANGFRLRVPYGTLLCVSDKPLHGELKLRGMANLFYRQRVSQHLAIGMEAVRLLRENGVETLHSRKLRSFDEPAFR | soluble
10 | MTEFESTEDQKPTMLASLDHLSLRNWASPFEEASTPPTASDDSFQSSSEDNLSLRNWAPLSPNPETVKSAKSLRNYSTNPLIPSYICDLCESPKTSELRVAYDAATFQTTYSYSIIWDVEMNDVEHYRKVMETVSKSSANSSRSSFGYFFEARPGMCRLLRTLHNYATDTSQASLADYMIELSGRAPSPVVVKCGHYLCTACFDIVKNADGTYGCSSQQCYWKGSSRQESKKNYENDICRKQRAKALGMKDLGIDVKPASSASSNPIKETSDSSSETNCSLSSGPVSFNHTMLNSLTPVAEHSVAIMMVLVEPLEVYGIVHSYVEMSFPLDTNLAKALGVMLHRKKKILGDYVANGKLYFGFVNDDEKIGMRRIKSNYYDSLMVAEIPKFDDRVVLIFDVGDYVARGFKIYLK | not soluble
11 | MTEFTLAHLSDPHLPLPPKTSLRHLASKRALGYLNWRRNRHLIHRRDILDTLVADLQAQQPDHIAVTGDLVNIALVNEFAPARQWLESVGPADRVSLVPGNHDAYVRSTAHRFAETFPDYISGDDATPGFPYLRRREAIAIIGVSSAVPTAPLRATGWLGAPQRAALEALLQSLAGERVFKVLLIHHPLQSRSRHKRLTDAADLIALLQRHPVDLVLHGHDHVHATVRIDTPFGAIPVVGVPSASAMNDRHRPSAAYNLFKISEGNDGWRCLEHHHHHH | not soluble
12 | MTEHLKSNTMVLPLKKGAQKMTTITLKVSEADKTFMKAMAKFEGVSLSELIRTKTLEALEDEYDARVADLAYQEYLEDLEKGVEPITWEEMMHDLGLKDE | not soluble
13 | MTEILQTLKEYIPISLEEMSGIKLMNRTDTKYVTSYQILKEILLAAGHDYRVQEVNGEYNIAYHTIYLDTADRDMYLTHQNGRVVREKIRIRTYVDSDLTFLEVKNKNNKGRTDKKRIRIGSIDTIKEDGGEAFLRQHAWYEQSQLLPLLENSFRRITLVNKHKTERLTIDTGVTFCCLQSGKISSLDNIVIIELKRDGHNSSPIKEILRKLHIQSSGFSKYCIGSALTVSHLKCNRLKPKLRMLNKMGVY | not soluble
14 | MTEKDYGQVTGMVHSTESFGSVDGPGIRFIIFLQGCKLRCQYCHNPDTWEMETNNSKIRTVNDVLKEALQYKHFWGKKGGITVSGGEAMLQIDFITALFIEAKKLGIHTTLDTCGFTYRPTPEYHQVLDNLLAVTDLILLDLKEIDEKQHKIVTRQPNKNILQFARYLSDKQIPVWIRHVLVPGLTD | not soluble
15 | MTEKKIDFKKEEKKFYAPKRKPERIFVPEMNFLMVDGKGDPDGEEYQKAVQSLYAIAYTIKMSKMGETRLDGYSDFVVPPLEGFWWSEGKFDLKDRDAWLWTSILRQPDFVTEEVLEWAKEVARKKKPDV | not soluble
16 | MTELQHPVLVVDDETDILDLMEMTLMKMGLRVHTASGVAEAKNKLDSQRYSLVLTDMRMPDGSGLEVVQHINSRLLDTPVAVITAFGNADQAQEALRCGAFDPDTMQIQDYLDQIERDIIEQTLKQTEGNRTQAAKRLGISFRSMRYRMERLNIG | not soluble
17 | MTENELLTRCGGKCELCGSDVELAIYDLPASDGHENEIMICENCSSQIAAPDTMDMNHWRCLNDSMWSQVPAVQVMSYRMLKRLSGESWAQDLLDMLYLEDDLRAWGDAEAAAASDDTPPTLDSNGAVLNAGDTVVIIKDLNVKGTSFVAKRGTAVRNIALTNNPEHIEGRVNGTRIVILTCFVKKSLEHHHHHH | soluble
18 | MTEQLPNCPECGSAYAYEDRGLFICPECGHEWSPTEEVAEEGLVVKDSNGNLLADGDSVTVIKDLKVKGASGAIKQGTKVKNIRLVEGDHNIDCKVDGFGPMKLKSEFVKKN | not soluble
19 | MTERKLVAERNFEVNGYDIDAMGIVSNIVYIRWFEDLRTDFINQYMPYSDMMNQQISPILMNTEAEYKTPITIHDKPVGRCYLVKASKLRWEFEFEIESEDAVHCIGKQSGTFFDLQKKKVTRLPEVFQTILSLEHHHHHH | not soluble
20 | MTERLEFTESAFEILGRKWNGLIIQSLLDSDRGSLHFAELSRSVHACSDRVLTVRLKELEDAGIIKRVCCPDNGKLGYRLTEKGSSMRPLMSEISRWAAENI | not soluble
21 | MTEWTGEERYQRIEDVDTEYFKTLKQQVDQSKFRQQFHIQPETGLLNDPNGLIFYKGKYYVSHQWFPLGAVHGLKYWYNYTSDDLINFKAEGPILNPDTKYDSHGVYSGSAFEYNGHLYYMYTGNHRDNHWQRHASQMIARLKEDGSVEKFPKPVISQQPEGYTSHFRDPKVFKYDEKYYAIIGAQNNDQQGRLLLYNTEDIINWHYLGEINTELDDFGYMWECPDYFNVDNQDVILICPQGIEPKGDQFKNIYQSGYILGKFDIEKLTYEHENFVELDNGFDFYAPQTFLDEKGRRVLIGWMGLPEIEYPTDNEGWAHCLTTPRVLNVENGQLKQRPYPALEKLRHNKETALGYANKFTRKLHPYEGKQYELIIDILDNDATEVYFELRTSKTSSTLIAYNKRENKITLDRSDSGLLPTNVEGTTRSTILDTPLKQLQIFVDTSSIEIFCNDGERVLTSRIFPTEDALGIKTSTESGQVYLQFTKYDLKDEHK | not soluble
22 | MTFALGQRWISDTESDLGLGTVVAMDARTVTLMFAASEENRVYARNDAPVTRVTFNVGDVIDCQEGWSLKVEEVLEDEGLYTYFGTREDTQETAVVLREIFLSNQIRFNKPQDKLYAGQIDRMDNFVLRY | not soluble
23 | MTFHYPNGIPYNHHEAQSPKKQVKKKRPVEFGNRGMDFEEAINQSNQYYLLNKQAVVHKKPTPVQIVKVDYPKRSAAVIKEAYFRQASTTDYNGVYQGRYIDFEAKETKNTTSFPFKNFHQHQIDHMEQCIAQQGICFVLLWFSSLKRCFFFSGENLITHWKNQAVTGKKSMPLALIEKEGIELSFGIAPRIPYLDAVEQYIQTH | not soluble
